Experimental data published in the supplement of paper PMC7877785.
± gives the uncertainty stated by the source.

Test: self-splicing fitness, log relative to wild type (ln ratio); higher = more splicing; Tetrahymena group I intron in knt gene, E. coli kanamycin selection, DiMSum; sequences stand for … in CUCUCU…GGAGGGAAAAGUUAUCAGGCAUGCACCUGGUAGCUAGUCUUUAAACCAAUAGAUUGCAUCGGUUUAAAAGGCAAGACCGUCAAAUUGCGGGAAAGGGGUCAACAGCCGUUCAGUACCAAGUCUCAGGGGAAACUUUGAGAUGGCCUUGCAAAGGGUAUGGUAAUAAGCUGACGGACAUGGUCCUAACCACGCAGCCAAGUCCUAAGUCAACAGAUCUUCUGUUGAUAUGGAUGCAGUUCACAGACUAAAUGUCGGUCGGGGAAGAUGUAUUCUUCUCAUAAGAUAUAGUCGGACCUCUCCUUAAUGGGAGCUAGCGGAUGAAGUGAUGCAACACUGGAGCCGCUGGGAACUAAUUUGUAUGCGAAAGUAUAUUGAUUAGUUUUGGAGUACUCGUGGUCG
Summary of the method: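 Fitness was computed with DiMSum as the error-weighted combination of replicate fold changes, kanamycin versus none, each normalised to wild type. The library randomised all eight intron nucleotides of the P1ex region, with the intron placed in the knt kanamycin-resistance gene on pET-22b(+) in E. coli BL21(DE3). Six replicate transformations were grown overnight at 37°C or 30°C on LB agar with or without 25 μg/mL kanamycin, plus 100 μg/mL carbenicillin, 50 μM IPTG and 0.2% rhamnose. Pooled colonies were amplicon-sequenced on an Illumina HiSeq 2500.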

| Sequence | self-splicing fitness (ln) (30 °C) | self-splicing fitness (ln) (37 °C) |
| --- | --- | --- |
| GCCCAGCAAUAUUACGCUAA | -0.87 ± 0.083 | -0.549 ± 0.09 |
| CUCUAGCAAUAUUACGAAUU | -3.81 ± 0.29 | -3.19 ± 0.4 |
| UCCCAGCAAUAUUACGGAAA | -2.01 ± 0.19 | -0.716 ± 0.13 |
| CAAGAGCAAUAUUACGUCGA | -3.3 ± 0.21 | -2.2 ± 0.24 |
| ACUCAGCAAUAUUACGUCCA | -0.69 ± 0.084 | -1.36 ± 0.11 |
| GUCGAGCAAUAUUACGACAC | -0.476 ± 0.2 | -1.13 ± 0.17 |
| GCAGAGCAAUAUUACGUAAA | -2.76 ± 0.19 | -3.33 ± 0.42 |
| GCGAAGCAAUAUUACGCACG | -2.58 ± 0.21 | -3.6 ± 0.35 |
| GUCAAGCAAUAUUACGAUAA | -1.8 ± 0.14 | -1.58 ± 0.15 |
| UGGUAGCAAUAUUACGACCU | -0.697 ± 0.13 | 0.261 ± 0.14 |
| CGUCAGCAAUAUUACGCAGU | -2.96 ± 0.2 | -2.12 ± 0.18 |
| ACUUAGCAAUAUUACGACUU | -0.0888 ± 0.085 | -0.156 ± 0.1 |
| UAGGAGCAAUAUUACGCAAG | – | -0.879 ± 0.22 |
| GCACAGCAAUAUUACGCGUA | -0.987 ± 0.094 | -0.173 ± 0.086 |
| CCAAAGCAAUAUUACGGCCC | -3.57 ± 0.43 | – |
| AACUAGCAAUAUUACGGUCC | -0.628 ± 0.13 | -0.637 ± 0.15 |
| GCUUAGCAAUAUUACGACAG | -2.97 ± 0.3 | -1.93 ± 0.47 |
| AUUAAGCAAUAUUACGCCUC | -2.77 ± 0.18 | -1.42 ± 0.16 |
| UCCCAGCAAUAUUACGGAAC | -4.36 ± 0.27 | -2.65 ± 0.18 |
| GUGGAGCAAUAUUACGGACC | -1.56 ± 0.38 | – |
| ACCGAGCAAUAUUACGGAGU | -3.72 ± 0.25 | -2.11 ± 0.18 |
| GCACAGCAAUAUUACGUACC | -1.47 ± 0.096 | -0.717 ± 0.13 |
| CCAUAGCAAUAUUACGCCUC | -3.21 ± 0.4 | -1.74 ± 0.29 |
| AAACAGCAAUAUUACGUGGA | -3.1 ± 0.14 | -1.95 ± 0.1 |
| UAGAAGCAAUAUUACGAUCG | 0.151 ± 0.093 | 0.149 ± 0.11 |
| CCCAAGCAAUAUUACGUCGA | -3.92 ± 0.26 | -2.81 ± 0.2 |

| Sequence | self-splicing fitness (ln) (30 °C) | self-splicing fitness (ln) (37 °C) |
| --- | --- | --- |
| UGCCAGCAAUAUUACGUGUA | -1.26 ± 0.058 | -0.551 ± 0.059 |
| GCCGAGCAAUAUUACGGGGG | -3.61 ± 0.19 | -3.02 ± 0.31 |
| ACAGAGCAAUAUUACGCACC | -3.6 ± 0.47 | -2.04 ± 0.38 |
| AUAAAGCAAUAUUACGCUGU | -0.921 ± 0.09 | -0.246 ± 0.1 |
| UCGCAGCAAUAUUACGGAGG | -3.71 ± 0.18 | -2.05 ± 0.15 |
| UACCAGCAAUAUUACGUUGA | -1.61 ± 0.049 | -0.796 ± 0.062 |
| ACCGAGCAAUAUUACGAUCG | -3.05 ± 0.33 | -1.64 ± 0.27 |
| UCCAAGCAAUAUUACGCAGG | -3.56 ± 0.43 | -2.05 ± 0.26 |
| AAAGAGCAAUAUUACGAUGC | -2.54 ± 0.2 | -1.96 ± 0.27 |
| UUCGAGCAAUAUUACGUAGA | -3.11 ± 0.16 | -1.97 ± 0.17 |
| CGUUAGCAAUAUUACGCCUU | -3.33 ± 0.43 | -2.18 ± 0.19 |
| AUUUAGCAAUAUUACGGCCU | 0.607 ± 0.15 | -0.166 ± 0.16 |
| UGUAAGCAAUAUUACGGGGU | -3.75 ± 0.31 | -2.24 ± 0.28 |
| UAUAAGCAAUAUUACGUGGU | -3.76 ± 0.29 | -2.53 ± 0.21 |
| GUCGAGCAAUAUUACGACCA | – | -0.961 ± 0.42 |
| UACUAGCAAUAUUACGACAU | -1.645 ± 0.014 | -0.715 ± 0.033 |
| AUUGAGCAAUAUUACGUUAA | -3.84 ± 0.37 | -1.47 ± 0.26 |
| AAAGAGCAAUAUUACGCGAC | -2.55 ± 0.2 | -0.998 ± 0.14 |
| CGUUAGCAAUAUUACGAGGA | -2.48 ± 0.27 | -2.13 ± 0.27 |
| UCACAGCAAUAUUACGCUUA | -1.66 ± 0.15 | -0.902 ± 0.12 |
| CGUCAGCAAUAUUACGGCCG | -0.623 ± 0.12 | 0.482 ± 0.15 |
| UCGGAGCAAUAUUACGACCG | -2.42 ± 0.45 | – |
| AGAAAGCAAUAUUACGACGA | -0.322 ± 0.13 | 0.0397 ± 0.12 |
| CGGUAGCAAUAUUACGUAAG | 0.00223 ± 0.095 | 0.329 ± 0.11 |
| ACGUAGCAAUAUUACGAAGG | -2.19 ± 0.21 | -3.97 ± 0.46 |
| AGCAAGCAAUAUUACGAUUA | -1.56 ± 0.093 | -0.818 ± 0.081 |

| Sequence | self-splicing fitness (ln) (30 °C) | self-splicing fitness (ln) (37 °C) |
| --- | --- | --- |
| GUCUAGCAAUAUUACGACUC | -0.625 ± 0.13 | -0.52 ± 0.15 |
| CAGCAGCAAUAUUACGGUCC | -3.63 ± 0.22 | -1.63 ± 0.2 |
| GUUGAGCAAUAUUACGAGAC | – | -0.388 ± 0.31 |
| CACGAGCAAUAUUACGCACA | -2.74 ± 0.19 | -1.17 ± 0.15 |
| AGCAAGCAAUAUUACGGAGU | -2.98 ± 0.13 | -1.6 ± 0.12 |
| AAUAAGCAAUAUUACGCGUU | -3.75 ± 0.15 | -1.8 ± 0.14 |
| CGUUAGCAAUAUUACGAUUA | -2.16 ± 0.26 | -1.14 ± 0.22 |
| CUCUAGCAAUAUUACGCGGA | -3.1 ± 0.4 | -1.9 ± 0.34 |
| AAGUAGCAAUAUUACGCCCC | -1.1 ± 0.19 | -1.22 ± 0.22 |
| ACAAAGCAAUAUUACGUCUG | -1.1 ± 0.056 | -0.244 ± 0.074 |
| CCUCAGCAAUAUUACGAUUU | -4.46 ± 0.22 | -1.39 ± 0.15 |
| UAGAAGCAAUAUUACGAUGA | -0.692 ± 0.13 | -0.446 ± 0.1 |
| AACCAGCAAUAUUACGCUUG | -1.94 ± 0.089 | -1.07 ± 0.11 |
| CGGUAGCAAUAUUACGUCGU | -3.85 ± 0.22 | -2.02 ± 0.24 |
| GGUCAGCAAUAUUACGGUGU | -1.44 ± 0.15 | 0.00529 ± 0.14 |
| AAAUAGCAAUAUUACGUCCG | -1.39 ± 0.16 | 0.00872 ± 0.18 |
| AUGAAGCAAUAUUACGCCAA | -0.427 ± 0.086 | 0.0636 ± 0.11 |
| CAUCAGCAAUAUUACGCACA | -0.992 ± 0.098 | -1.21 ± 0.11 |
| CAUCAGCAAUAUUACGUCUA | -2.35 ± 0.095 | -1.58 ± 0.08 |
| AACAAGCAAUAUUACGGCAA | -0.882 ± 0.069 | 0.119 ± 0.077 |
| GUGUAGCAAUAUUACGGGCG | -2.61 ± 0.27 | -1.21 ± 0.18 |
| UGGAAGCAAUAUUACGCCUA | 0.049 ± 0.092 | -0.109 ± 0.12 |
| UUGUAGCAAUAUUACGAUCC | – | -0.641 ± 0.37 |
| GCGUAGCAAUAUUACGAAUA | -0.7 ± 0.12 | -1.13 ± 0.11 |
| UUGAAGCAAUAUUACGUUAA | -1.47 ± 0.075 | -0.311 ± 0.11 |
